Results from the supplement of paper PMC9170038.

Tested on: MS2 coat protein
Test: apparent KD of MS2 coat protein; designed switch direction (-1 OFF switch, 1 ON switch): -1; higher = weaker reporter binding
In short: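 SNAP-549-labelled MS2 coat protein was titrated, doubling from 0.7 or 1.5 nM to 3 µM, over designed RNA switches transcribed on Illumina chips by stalled E. coli RNA polymerase. Runs were done without input, with 200 uM small-molecule ligand, or with an oligonucleotide input. Apparent KD is the per-design median over clusters of curve-fitted normalised fluorescence.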

[1] = input ligand: microRNA oligo, concentration not stated
[2] = Eterna round: R95, input ligand: FMN 200 uM
[3] = Eterna round: R95, input ligand: microRNA oligo, concentration not stated
[4] = Eterna round: R95, input ligand: none

Sequence	apparent KD of MS2 coat protein (input ligand: FMN 200 uM) [nM]	apparent KD of MS2 coat protein [1] [nM]	apparent KD of MS2 coat protein (input ligand: none) [nM]	apparent KD of MS2 coat protein [2] [nM]	apparent KD of MS2 coat protein [3] [nM]	apparent KD of MS2 coat protein [4] [nM]
GGUCAGACGGUAGGAUAUCCAUAUCGAGUGACCCUUUCAUAACAUGAGGAUCACCCAUGUCGGUGGGAGAAGGGCCGUACGGCG [salish99_ExNG02_R04_001] (Eterna round: R96, puzzle: Exclusion NG 2)	146	70.4	63.2			
AGUUGGCGAGGAUAUACAUGAGGAUCACCCAUGUGAGAGAAAAAAGUGAGGAAGAAAAGUAGAAGGCGCUGACA [salish99_ex3_r3_038] (puzzle: Exclusion 3)				318	48.3	77.3
AGUUGGCGAGGAUAUACAUGAGGAUCACCCAUGUGAAAUUAAAGUGAGUAAAUGAAAAGUAGAAGGCGCUGACA [Mod of Mat 21 - Jieux - Exclusion 3] (Eterna round: R97, puzzle: Exclusion 3)	259		40.3			
UAUAUGUCAGGAUAUUAGUAGUGGAUGAAUAAGAUUAUUGCUGAGAAGGGACAUGAGGAUCACCCAUGUUCCUC [JR_Ex4_Sub002] (Eterna round: R97, puzzle: Exclusion 4)	27.5		18.5			
UGUACGAUGCGUGCUGACAUGCGUCGUGCAGCAGGUGAUACAUGAGGAUCACCCAUGUCCUCAUUUGCUCGUCAUGU [Mat - Sensor v3 - Turn-off var 2 - D25] (puzzle: Sensor v3, turn-off variant 2)				73.4	384	91.3
AUAUAUAGUGUGAGGAUAUGCUGGUCCUUGGAUCAGCAGAAGGCACAUGAGGAUCACCCAUGUAGUUAAAUAUA [Mat - Exclusion 4 - JL Mod - D19] (puzzle: Brourd's mod of Exclusion 4)					32.1	
GCAGCUAACACAGAUAUGUGCACAUGAGGAUCACCCAUGUCACAGGAUAUGGACUGGAUUACAGUCCAGAAGGGUGAAUGCUGC [Zipper Style 6] (Eterna round: R96, puzzle: Exclusion NG 3)	10.2	7.97	14			
UAAUUAGACUCAGGAUAUUCGAAGAGAAGAGAGGAAGAAGGGAGGUGACAUGAGGAUCACCCAUGUAUGUGUUGUGUCCAUGUG [Exclusion NG 1 S1] (Eterna round: R96, puzzle: Exclusion NG 1)	326	553	617			
CAGUACUGAGGAUAUACAUGAGGAUCACCCAUGUGUUCCAGCUAGGGAACUAGCAAAAGUAGAAGGCAGUACUG [salish99_ex3_r3_075] (puzzle: Exclusion 3)					23.1	
UUGUUGUGUGUAGGAUAUGCGUGUUAUUAUUAUGCAGAAGGACAUGAGGAUCACCCAUGUGUAUUAUUAUUAUAUAUUAUAUAU [Title] (Eterna round: R96, puzzle: Exclusion NG 1)	23.8	17.1	23.5			
AAAAAAAGACAAGAGGAGAUUCGUCUUAAAAAUCCUCAAACAUGAGGAUCACCCAUGUAAAAUGAUCGAAAGAUCAA [Mat - Sensor v2 - ver2 - JL mod - D39] (Eterna round: R96, puzzle: Sensor v2, turn-off variant 2)	25.7	24	29.2			
UUUACAAGCUUUUGAUCCCACAUGAGGAUCACCCAUGUUGCUGCCGUGAGGUAGCAUUUAACAAAUGCUCGUCUUAU [JL TOV1 3.54] (Eterna round: R97, puzzle: Sensor, turn-off variant 1)	404		1380			
AUUUAAUUUAAUAAGAUCACAUGAGGAUCACCCAUGUAUAUAUAGGAUAUCAGCUCGAAUAGAGCUGAGAAGGAUAUAUACAUG [ExNG3/8-A4] (Eterna round: R96, puzzle: Exclusion NG 3)		15.4				
UAAUUAAGUGUGAGGAUAUGCUGGUCCUUGGAUCAGCAGAAGGCACAUGAGGAUCACCCAUGUAAAUUAUUUAU [Mat - Exclusion 4 - JL Mod - D60] (Eterna round: R96, puzzle: Brourd's mod of Exclusion 4)	332	54	76.5			
ACAUGUAUUGCAGGAUAUGGGACACAUGAGGAUCACCCAUGUGACCAUAUGUAAUGCCACGGGUCUCAGAAGGGUAUGUACAUG [Ex NG2 #44] (Eterna round: R96, puzzle: Exclusion NG 2)	12.8	10.3	14.1			
UUAUACGUUGAGGAUAUGCGAAUUAGUAUAGUUGCAGAAGGCGAUACAUGAGGAUCACCCAUGUUUAUGGGCAU [LRO-Ex6-06] (puzzle: Exclusion 6)					152	
GGUCGUCAAGUCAGGAUAUCGUUUGGUCGGUGUAACGAGAAGGGACAUGAGGAUCACCCAUGUCGUCUCAUCAG [Ex4 #28] (Eterna round: R97, puzzle: Brourd's mod of Exclusion 4)	29.3		20.4			

Sequence	apparent KD of MS2 coat protein (input ligand: FMN 200 uM) [nM]	apparent KD of MS2 coat protein [1] [nM]	apparent KD of MS2 coat protein (input ligand: none) [nM]	apparent KD of MS2 coat protein [2] [nM]	apparent KD of MS2 coat protein [3] [nM]	apparent KD of MS2 coat protein [4] [nM]
AGCUUUUUGUUCGUCUUAUACAUGAGGAUCACCCAUGUAUUGGACCGCAUCGAUAGAUGUAGACCGAGAAGCAUGGG [Omdei Mir OFFv1 C6] (Eterna round: R97, puzzle: Sensor, turn-off variant 1)	63		55.3			
UUAAGGAUAGAGGAUAUAUUAAAGAAGGUGGCGAUAGAAGGCUAGACAUGAGGAUCACCCAUGUAAAUUGGGAU [JR_Ex6_Sub068] (Eterna round: R97, puzzle: Exclusion 6)	378		309			
CAGCUGAAAGUGAGGAUAUCUAGAGCUUCGGCUCUAGAGAAGGCACAUGAGGAUCACCCAUGUCUCAACAGCUG [BmEx4/1-A1] (Eterna round: R97, puzzle: Brourd's mod of Exclusion 4)	59.5		16.9			
GCCAUGGGAGGAUAUACGUCAUAGGUUACCUCACGCUGGCGACAUGAGGAUCACCCAUGUAGAAGGCUCAGAUG [Eternabot (L2) Solution 12] (Eterna round: R97, puzzle: Exclusion 2)	101		113			
AUAUCACAUGAGGAUCACCCAUGUCAGGAUAUCGACUGAACAGCUUCGGCUGUUCAGUCGAGAAGGGACAAUUA [Brourdxlusion 2 - Jieux - Exclusion 1] (Eterna round: R97, puzzle: Exclusion 1)	84.9		56.2			
AAUUAGUAUGUGAGGAUAUUGAUGAGAUGAUGGUUUAAGAAGGCACAUGAGGAUCACCCAUGUAGGAAAUAACG [JR_BMEx4_Sub005] (Eterna round: R97, puzzle: Brourd's mod of Exclusion 4)	37.8		24.4			
ACAUGAGGAUCACCCAUGUACACGUAAUGGCUCAUGUAGAGUGAGGAUAUGUGUGACGAACGAGCACAGAAGGCACAAGACUGG [Deportation 12 - Jieux - Exclusion NG 3] (Eterna round: R96, puzzle: Exclusion NG 3)	51.8	39.8	40.2			
CGGGUCGGAGGAUAUACAGAAGCAUCUGUGUCGGGAAUAUGACAUGAGGAUCACCCAUGUAGAAGGCCGAUCAC [Eternabot (L2) Solution 98] (Eterna round: R97, puzzle: Exclusion 2)	485		80			
UGAGUACUGCGAGGAUAUACAUGAGGAUCACCCAUGUAAUAGUGUGAGGCUUUGCCUCACACAAUGUAGAAGGCGCAGUACUCU [Mat - Exclusion NG 2 - Mod of JL - D5] (Eterna round: R96, puzzle: Exclusion NG 2)	15.5	9.63	11.8			
UUUAUGUCAGGAUAUGAUUAGAUCUACUUUUGUAGAUCUAAUCAGAAGGGACAUGAGGAUCACCCAUGUAGUUU [Ex4 - 3 - 14] (puzzle: Exclusion 4)					116	
ACAUGAGGAUCACCCAUGUCUGGCUGGUCCGCUCCGGCUGUUGAGGAUAUAGCUCGGUGUCCGCGCUAGAAGGUGAGGGCCGGC [Aenatbe mod 33] (Eterna round: R96, puzzle: Exclusion NG 3)	22.4	18.6	25.1			
GUAAAUCAUGUAGGAUAUGCGUGGCGAAGCUAUGCAGAAGGACAUGAGGAUCACCCAUGUGCUUCCGUCUGAGAACAGACGGAA [Mat - Exclusion NG 1 - Mod of JL - D27] (Eterna round: R96, puzzle: Exclusion NG 1)	105	187	341			
UCGUGUCGAGAGGAUAUCUAGGACACCCUUCCAAGAGAAGGCUUGACAUGAGGAUCACCCAUGUACGGGUAAAU [EX6 A.9] (Eterna round: R97, puzzle: Exclusion 6)	25.6		39.9			
GUACACGGCUAGGAUAUCAUUCCUUGCGACCCUUGAGAAGGAGCCACAUGAGGAUCACCCAUGUCAUAUGCAGA [Eternabot (Original) Solution 38] (Eterna round: R97, puzzle: Exclusion 6)	37.5		33.2			
ACAUGAGGAUCACCCAUGUUUUUCGGGUACUCUUUUUACAGCAAGGAUAUGCAUUAUUUUUUUACGCAGAAGGUGCUUUACGUC [JR_ExcNG3_Sub066] (Eterna round: R96, puzzle: Exclusion NG 3)		116				
CAUAGCCGUGUAAGGAUAUCCGAUCCACGGGACAAGGAGAAGGUACAUGAGGAUCACCCAUGUAAGGGUUCCUA [Vecequve] (Eterna round: R97, puzzle: Brourd's mod of Exclusion 4)	22.9		21.7			
